Data reported in PMC12764052.

Target: Pyruvate kinase M2 isoform (human (endogenous in AGS and HGC27)) (UniProt P14618)
Assay: cross-linking

Chain of Pyruvate kinase M2 isoform, P14618 1-531 (natural protein; other documents disagree on this pair) (P14618 whole entry, canonical isoform): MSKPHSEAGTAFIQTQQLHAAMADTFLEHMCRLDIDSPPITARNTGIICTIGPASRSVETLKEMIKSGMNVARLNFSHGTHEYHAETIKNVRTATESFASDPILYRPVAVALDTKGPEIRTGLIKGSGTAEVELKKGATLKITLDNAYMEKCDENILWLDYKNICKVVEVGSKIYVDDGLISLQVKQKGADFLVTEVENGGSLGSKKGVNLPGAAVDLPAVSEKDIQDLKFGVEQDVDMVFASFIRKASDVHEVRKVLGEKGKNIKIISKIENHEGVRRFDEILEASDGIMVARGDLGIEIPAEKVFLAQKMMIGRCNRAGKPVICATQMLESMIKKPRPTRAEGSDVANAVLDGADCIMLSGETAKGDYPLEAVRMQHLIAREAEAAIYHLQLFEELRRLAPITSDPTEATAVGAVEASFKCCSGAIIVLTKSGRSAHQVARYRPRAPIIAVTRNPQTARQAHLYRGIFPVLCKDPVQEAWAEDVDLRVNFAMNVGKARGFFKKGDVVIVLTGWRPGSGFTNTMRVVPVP

## Pyruvate kinase M2 isoform, P14618 1-531 (natural protein; other documents disagree on this pair)
  stoichiometry N: 2
